Assay results reported in US20240173424A1, “ANTI-NECTIN-4-ANTIBODY EXATECAN CONJUGATES” (EMERGENCE THERAPEUTICS AG, priority 2021, published 2024).

Legend:
human Nectin-4 [1] = test: Flow cytometry of MDA-MB231 transfected with Flag-tagged Nectin-4; format: binding; conditions: MDA-MB231 transfected with Nectin-4, 0.3 ng/ml-5 μg/mL
Protocol: Detection by flow cytometry. • Flow cytometry analysis of MDA-MB231 transfected with the N-terminal Flag-tagged epitope of Nectin-4 using a dose range (0.3 ng/ml-5 μg/mL) of Ch-15A7.5 or Ch-5A12.2 antibodies Parental MDA-MB231 cells are included as controls. Cells were then stained with phycoerythrin conjugate goat anti human Fc antibody. The normalized mean fluorescence intensity is shown. Inlay: staining of parental MDA-MB231 cells with anti Nectin-1, -2 and -3 mAbs ([…]). Mean fluorescence intensity is represented.
Human breast carcinoma cell line MDA-MB231 (ATCC, Manassas, VA) was cultured in DMEM supplemented with 10% fetal bovine serum, 50 IU/mL penicillin, 50 μg/mL streptomycin and 2 mM glutamine. The cells were transfected with expression vector p3XFLR4.C1 containing a PVRL4 cDNA. Human triple negative breast cancer cell line SUM190PT (BioIVT, Westbury, NY) was cultures in Ham's F12 medium with 5% fetal bovine serum, 1% non-essential amino acids, 1% Hepes, 1% insulin, 1 μg/mL hydrocortisone, 6.8 ng/ml Triiodo L-tyrosine, 100 IU/mL penicillin, 100 μg/mL streptomycin and 2 mM glutamine. Chinese hamster ovary CHO cell line was cultured in DMEM supplemented with 10% fetal bovine serum, 100 IU/mL penicillin, 100 μg/mL streptomycin and 2 mM glutamine. […]

SUM190PT cells = test: SUM190PT orthotopic xenograft in NSG mice; format: in vivo, mouse; conditions: SUM190 grafted NSG mice, single intravenous injection, 4 or 8 mg/kg
Excerpt: Treatment of mice (single intravenous injection) started when tumors reached approximately 150 mm^3. […] Tumor sizes (n=10/group) were monitored with a caliper twice a week thereafter and sizes were reported with the following formula (LxlxhxPi/6).
NOD/SCID (nonobese diabetic/severe combined immunodeficient)/gc null mice (NSG) were obtained from Charles River Laboratory (Margate, UK). Six to seven-weeks old females (n=5/group) were orthotopically xenografted bilaterally with the SUM190PT (0.5×10^6) cells embedded in Matrigel. Treatment with ADC was performed as mentioned in the respective experiments. Tumor sizes (n=10/group) were monitored with a caliper twice a week thereafter and sizes were reported with the following formula (LxlxhxPi/6).

human Nectin-4 [2] = test: ELISA on coated Nectin-4 Fc fusion proteins (Nec4-VCC, Nec4-V); format: binding; conditions: statement in FIG. 3 legend on the competitor mAbs
Protocol: Detection by ELISA. • Ninety-six-wells plates were coated, as indicated, with 5 μg/mL Nectin-1 extracellular domain Fc fusion recombinant protein (Nec1-VCC), or Nectin-4 IgV-like domain Fc fusion recombinant protein (Nec4-V), or Nectin-4 extracellular domain Fc fusion recombinant protein (Nec4-VCC) overnight at 4° ° C.
FIG. 3: Characterization of Ch-15A7.5 epitope. Competition assay was performed by ELISA. • Ninety-six-wells plates were coated with 5 μg/mL of Nectin-4 extracellular domain Fc fusion recombinant protein (Nec4-VCC) overnight at 4° C. Binding of peroxidase-conjugated Ch-15A7.5 mAb (5 μg/mL) was measured in presence of increasing concentrations (2.75 ng/ml-6 μg/mL) of Rituximab, Ch-15A7 mAb, Enfortumab (HA22), Ch-N41 mAb and Ch-14A5 mAb.
A sandwich enzyme-linked immunosorbent assay was used to control specificity of Ch-15A7.5 antibody and to perform competition assays between different mAbs. Ninety-six-wells plates were coated with 10 nM of Nectin-4-VCC-Fc, Nectin-1-VCC-Fc (entire extracellular part) or Nectin-4-V-Fc (comprising only the IgV domain) overnight at +4° C. After washes and saturation with PBS 1% BSA, cells were incubated for 2 hours at 25° C. with 10 nM of peroxidase-conjugated Ch-15A7.5 mAb. In the case of competition, binding of 0.5 nM of peroxidase conjugated Ch-15A7.5 mAb was measured in the presence of variable concentration (0.018 nM to 40 nM) of “cold” mAb. One hundred μL of peroxidase substrate was added (One Step ABST, Pierce), and OD was red at 405 nm.

[3] = target: T1, Nectin-4 expressed by tumors and Nectin-4 expressed by human keratinocytes (Homo sapiens, UniProt Q96NY8); test: Differential binding to tumor cells and human keratinocytes; conditions: in vitro differentiated Nectin-4 expressing keratinocytes
T1 construct: Cells or cell lines (10,000-50,000) expressing Nectin-4 (naturally or transfected); endogenous in cells; host or cells: SUM190/SUM190PT (also SUM149 in IHC), NHEK differentiated with 0.1 mM CaCl2, human skin sections
T1 sequence (Q96NY8 32-510): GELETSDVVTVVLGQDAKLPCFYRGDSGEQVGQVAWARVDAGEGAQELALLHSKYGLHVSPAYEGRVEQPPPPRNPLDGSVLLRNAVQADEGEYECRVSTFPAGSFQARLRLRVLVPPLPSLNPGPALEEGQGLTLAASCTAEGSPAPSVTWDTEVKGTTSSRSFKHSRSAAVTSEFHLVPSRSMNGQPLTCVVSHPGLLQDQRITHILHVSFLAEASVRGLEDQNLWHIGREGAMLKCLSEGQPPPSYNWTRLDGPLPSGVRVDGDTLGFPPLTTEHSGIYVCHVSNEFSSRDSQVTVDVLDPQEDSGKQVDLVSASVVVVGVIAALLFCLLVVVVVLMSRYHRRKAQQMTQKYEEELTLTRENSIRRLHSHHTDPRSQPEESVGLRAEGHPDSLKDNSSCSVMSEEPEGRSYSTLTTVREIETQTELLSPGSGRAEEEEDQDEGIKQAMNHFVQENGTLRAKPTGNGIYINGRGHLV
Excerpt: FIG. 6: Differential binding to Nectin-4 expressed by tumor cell line and normal differentiated human keratinocytes. […] Cells were then stained with phycoerythrin conjugate goat anti human Fc antibody. Normalized mean fluorescence intensities are shown. Non-linear curve fitting (4 parameters) was done with GraphPad Prism 9 software. Horizontal bar is placed at 50% of maximum staining intensity obtained with HA22 antibody on SUM190 cells.
FIG. 7: Differential binding to Nectin-4 expressed by tumor cell line and normal differentiated human keratinocytes. Detection by flow cytometry. • Flow cytometry analysis of TNBC cell line (SUM190, A) and normal differentiated (0.1 mM CaCl2) human keratinocytes (NHEK, B) using 5 μg/mL of HA22 (Enfortumab), Ch-5A12.2, Ch-15A7.5, and Ch-8F06. Cells were then stained with phycoerythrin conjugate goat anti human Fc antibody. Normalized mean fluorescence intensities are shown.
FIG. 8: Differential binding to Nectin-4 expressed by tumor cell line and human keratinocytes. Detection by immuno-histochemistry. Cryo-preserved OCT-embedded blocks of high expressing levels of Nectin-4 tumor cell line (SUM190), low expressing levels of Nectin-4 tumor cell line (SUM149), human and cynomolgus skin were processed for staining with 15A7.5 mAb (A) and 9A2.7 mAb (B). Quick score reported for each mAb are shown (A, B). C, ratio of quick score SUM190 over human skin. […]
Remaining blocks were stored at −80° C. until further use. […] Several dilution of each mAb were tested to optimize noise to signal ratio and 0.5 μg/ml of mouse 15A7.5 mAb and 10 µg/mL of mouse 9A2.7 mAb were determined as optimal. […] Both the stained cells proportion and the staining intensity were evaluated for each field. […] Scoring procedure was as follows: (i) The proportion of cells stained positively was estimated and a score from 0 to 4 was be assigned for each field (0=0-5%; 1=5-25%; 2=25-50%; 3=50-75%; and 4=75-100%); and (ii) The staining intensity was scored as 0, 1, 2, or 3 corresponding to the presence of negative, weak, intermediate, and strong brown staining, respectively. […]

B1: Ch-5A12.2: chimeric antibody of 5A12.2 (antibody, V domains shown)
VH: QIQLQQSGAELVKPGASVTLSCKTSGFTFNSMYISWLKQKPGQSLEWIAWIYAGTGGTRFNQKFTGKVQLTVDTSSSTAYMQFSSLTTDDSAIYYCAIRSGFVPMDYWGQGTSVTVSS
VL: SIVMTQTPKFLLVSAGDRVTITCKASQSVSNDVAWYQQKPGQSPKLLIYYASNRYTGVPDRFTGSGYGTDFTFTISTVQAEDLAVYFCQQDYSSPWTFGGGTKLEIK
recognition of human Nectin-4 (human Nectin-4 [1]): recognize human Nectin-4

B2: HA22-MC-GGFG-DX8951 (conjugate, chains of the INN, looked up)
VH: EVQLVESGGGLVKPGGSLKLSCAASGFAFSIYDMSWVRQTPEKCLEWVAYISSGGGTTYYPDTVKGRFTISRDNAKNTLYLQMSSLKSEDTAMYYCARHSGYGTHWGVLFAYWGQGTLVTVSA
VL: DIQMTQTTSSLSASLGDRVTISCRASQDISNYLNWYQQKPDGTVKLLIYYTSILHSGVPSRFSGSGSGTDYSLTISNLEQEDFATYFCQQGNTLPWTFGCGTKLEI
modifications: MC-GGFG-DX8951 (exatecan) payload
tumor regression (SUM190PT cells): induces a long-lasting tumor regression period

B3: HA22: human monoclonal anti-Nectin-4 antibody described in WO2012/047724, antibody of Enfortumab vedotin (antibody, V domains shown)
VH: EVQLVESGGGLVQPGGSLRLSCAASGFTFSSYNMNWVRQAPGKGLEWVSYISSSSSTIYYADSVKGRFTISRDNAKNSLSLQMNSLRDEDTAVYYCARAYYYGMDVWGQGTTVTVSS
VL: DIQMTQSPSSVSASVGDRVTITCRASQGISGWLAWYQQKPGKAPKFLIYAASTLQSGVPSRFSGSGSGTDFTLTISSLQPEDFATYYCQQANSFPPTFGGGTKVEIK
recognition of the IgV domain of Nectin-4 (human Nectin-4 [2]): recognize the IgV domain of Nectin-4

B4: mAb 3A1.4: monoclonal anti-Nectin-4 antibody characterized by SEQ ID NO:s 96-103 (antibody, V domains shown)
VH: DVQLQESGPSLVKPSQTLSLTCSVTGDSITSGYWNWIRKFPGNKLEYMGYISNSGITYYNPSLKSRISITRDTSKNQYFLQLNSVTAEDTATYYCTRFGSTMILYYTMDYWGQGTSVTVSS
VL: DIVMTQSPVTLSVTPGDRVSLSCRASQSISDYLHWYQQKSQESPRLLIKYASKSISGIPSRFSGSGSGSNFTLSINSVEPEDVGVYYCQNGHSFPLTFGAGTKLELK
modifications: VH_3A1.4; VK_3A1.4
affinity to Nectin-4 expressed by tumors in comparison to Nectin-4 expressed by human keratinocytes [3]: higher affinity
